# Reference: the RNAGym collection of RNA variant scans (doi:10.7554/elife.90254)
# B1: OR4K15 (parent)
# chain: GUUAACGGUCAUAGGCCAUGGAAACUAGGAGCACCAUUUCGCUGCCAGUGAAGAAAUGAACAAAGAAAAUCUGGGCCAGGCAGGCAUCAAAAGAAAUAGUCUUGCGCUCAACCAGAAAGUCUGUAAUCAUUUUAAGGGUA
# Variants of: B1
# Assay: self-cleavage, relative activity (ratio to wild type); higher = more cleavage; in vitro, sequencing; the parent is a self-cleaving ribozyme
row,Variant,self-cleavage
1,A22G U133C,0.65
2,A22G A36G,1.4
3,A22G A82C,0.25
4,A22G A82G,0.68
5,U19A U37C,0.9
6,U19G A60G,1.61
7,A22G U87A,1.28
8,A22G U87C,1.28
9,G20A A54G,1.28
10,A22C U108A,0.02
11,U19C A23G,0.88
12,U19C G115A,0.03
13,A18U U133C,2.02
14,U19C A117G,1.58
15,U19A U57C,0.67
16,U19G A94U,1.64
17,U19G A94G,1.02
18,A22G A118G,0.99
19,U19A C35A,0.65
20,G20C A36G,2.25
21,U19C G48U,2.78
22,U19C C46A,1.64
23,A22G A54U,1.08
24,G21A U38G,1.15

row,Variant,self-cleavage
1,A22G A27U,1.2
2,G20U A111G,0.04
3,U19C U130C,0.31
4,G20A A90G,0.76
5,A22G A68C,0.64
6,U19C U37A,0.9
7,U19C A24G,1.28
8,G20U A33U,0.94
9,A22G A30G,0.99
10,A22G A30U,1.9
11,U19A U131A,0.78
12,A22G G106A,0.03
13,U19G A51U,1.46
14,U19G A51G,0.33
15,U19G U100C,2.09
16,U19G U100A,0.74
17,A22G A59G,1.07
18,U19C A52G,1.35
19,A22C A30G,1
20,U19G A114U,0.1
21,U19A A110C,0.3
22,A18U U131C,0.74
23,G20A A52U,1.8
24,A22G A52G,0.91

row,Variant,self-cleavage
1,G20U A67G,1.24
2,A22G G83A,1.27
3,A22G G83U,0.54
4,U19C A95G,1.58
5,U19C C32U,1.32
6,U19C C32G,1.51
7,A22G G48U,0.9
8,U19A A96G,1.64
9,U19C U131C,1.14
10,U19C U122C,0.46
11,U19C U122A,0.65
12,A22C U102C,2.42
13,G21U A59G,1.68
14,A18U U130C,1.37
15,G20U U130C,1.04
16,U19A U102A,0.97
17,U19C C88A,2.03
18,U19A U38C,1.98
19,A22G C42A,0.91
20,A22G C42U,1.45
21,U19C C34U,0.91
22,U19C A89G,1.5
23,U19C A89U,1.15
24,G21C C61U,0.94

row,Variant,self-cleavage
1,A22G A125U,1.32
2,U19C A30U,1.02
3,A22G C112A,0.05
4,A22G C77U,1.62
5,A22G C25A,0.35
6,A22G C25G,1.24
7,G20A A62G,1.45
8,G20A A110U,1.39
9,A22C A114U,0.08
10,A22G U39G,1.41
11,G21A A52G,1.57
12,U19C U72A,0.33
13,G20U U100C,2.46
14,A22G C40U,1.85
15,U19C A114C,0.06
16,G20A C121U,2.49
17,G20A U97A,2.67
18,G21A U72C,0.3
19,U19C U139C,1.58
20,G20A A68G,1.37
21,U19C A111U,0.07
22,A22G G75C,0.37
23,U19G A91G,1.28
24,U19C A92U,1.93

row,Variant,self-cleavage
1,A22G A55U,1.26
2,A22G A55G,1.16
3,A22G A24C,0.56
4,G21C A118G,1.14
5,A22G A69G,1.07
6,A22G A69U,1.28
7,A22G G137A,1.63
8,A22G A64U,0.62
9,A22G A64G,1.31
10,G21C A126G,1.63
11,G20A A126G,1.02
12,U19C C45U,0.47
13,G20A U37C,0.64
14,A18U U108A,0.02
15,U19C A47G,0.41
16,A22G A95G,1.75
17,A22G U131C,0.51
18,G21C A78G,0.27
19,U19G A126G,1.18
20,A22G A67G,1.16
21,U19C A69C,1.71
22,U19C A69G,1.05
23,U19C A69U,1.62
24,U19C G50A,1.38

row,Variant,self-cleavage
1,U19C U102A,1.29
2,A18U U122C,0.87
3,A18U U122A,0.64
4,A22U A30C,0.38
5,U19A A92U,2.13
6,U19A A92G,1.47
7,A22C U139C,0.51
8,G20U A78G,0.26
9,U19A A134U,0.89
10,U19G G28C,0.48
11,U19C A63G,0.89
12,G20A U49C,1.6
13,U19A A116G,1.24
14,U19A A66U,1.07
15,U19A A66G,1.27
16,U19A U103C,0.75
17,G20U U97C,0.63
18,A22G U132C,1.28
19,A22G U132A,1.93
20,G21U U108A,0.02
21,A18U U37C,0.8
22,U19C C85U,0.88
23,U19A A111C,0.01
24,U19A A111G,0.02

row,Variant,self-cleavage
1,A22G U37C,1.68
2,A18U U87A,1.04
3,A18U U87C,1.41
4,A22G A66G,1.25
5,A22G A66C,1.49
6,A22G A66U,1.41
7,G20A U132C,1.92
8,G21U A118G,1.98
9,A22C A69U,1.74
10,U19C C109U,0.63
11,U19C U127C,0.95
12,U19C U127A,2.17
13,G20A A78G,0.3
14,U19C A125G,0.61
15,U19A U26A,1.58
16,A22G A51U,1.24
17,U19A A86U,1.87
18,U19A A33C,1.31
19,U19A A82G,0.68
20,A22G U108C,0.03
21,A22G A129C,1.08
22,U19C U57A,1.21
23,U19C U57C,1.37
24,G21C A68G,2.19

row,Variant,self-cleavage
1,U19C A126U,0.65
2,A22U A23U,1.59
3,A22G A126C,0.67
4,U19C C113A,0
5,U19C A118G,1.27
6,A18U U43G,1.5
7,A18U U43C,1.42
8,G21U U72A,0.4
9,U19A U70C,1.06
10,U19C C105U,0.15
11,U19C C105G,0.04
12,U19A A129G,0.05
13,G21A A86U,2.01
14,U19A A24G,0.29
15,G21A A24G,1.35
16,G20U A68G,1.59
17,A22G U49A,0.65
18,G21A A33G,0.33
19,A22G U122C,0.86
20,A22G U122G,1.67
21,A18U U127C,0.91
22,U19A A51G,1.36
23,U19A A51U,2.15
24,G21A A126G,1.09

row,Variant,self-cleavage
1,G20A A116G,0.47
2,A22G U57A,1.15
3,A22G C35A,1.2
4,U19A U49A,1.05
5,U19A A68G,1.64
6,U19C A82G,0.61
7,U19A A67G,1.84
8,A22G G138U,0.66
9,U19G A47U,1.08
10,A18U U103C,1.29
11,U19A U39C,0.99
12,G20U C77A,0.73
13,U19A U97G,1.84
14,U19C A62U,1.48
15,A22G A117U,0.49
16,A22G A117G,1.68
17,U19A A64G,1.03
18,A22G C46G,1.35
19,G20U A82U,0.2
20,U19G C40A,1.04
21,A18U U139C,1.45
22,A22G A63C,1.25
23,A22G A63G,1.72
24,A18U U19C,0.12

row,Variant,self-cleavage
1,A18U U19A,1.53
2,A22G C113U,0.14
3,U19A U72A,0.21
4,G21A U120A,1.28
5,U19A U43C,1.77
6,U19C G80C,0.1
7,A22G G28A,1.28
8,A22G G28C,1.42
9,G20A U72A,0.06
10,A22G C88U,2.1
11,A22G U124C,0.38
12,A22G U124A,1.29
13,U19A U108C,0.03
14,A22G U97C,1.52
15,A22G U97A,0.96
16,A18U G79A,0.05
17,A22G C107U,0.06
18,U19G A78C,0.39
19,U19G A78U,0.89
20,U19C G136A,1.38
21,A22G U72C,0.33
22,A22G U72A,0.49
23,G20A A59U,0.83
24,G20A A59G,1.19

row,Variant,self-cleavage
1,A22G A33C,0.57
2,A22G A89G,0.62
3,A22G A89U,1.43
4,A22G A62G,1.12
5,G20C U124A,0.67
6,U19G A111G,0.04
7,U19C A140G,0.62
8,G21A U132A,1.94
9,G21A A55G,1.29
10,G20A U38G,1.25
11,G20A U38C,1.72
12,U19A A59U,1.72
13,G20U A129G,1.17
14,A22G U43A,1.31
15,A22G U43C,0.78
16,U19A C25U,1.86
17,A18U U38C,1.28
18,U19C U39C,1.7
19,A22G A47U,0.62
20,A22G A47G,1.34
21,U19C C112A,0.02
22,G21U U87A,1.31
23,U19C A86G,1.37
24,A22G A135U,1.86

row,Variant,self-cleavage
1,A22G A135G,1.54
2,G21C U102C,2.26
3,U19C U87C,1.52
4,U19C U87A,1.48
5,A22G U103C,0.98
6,A22G A114C,0.03
7,A22G A114G,0.69
8,U19A U120C,0.79
9,G21U A52G,1.58
10,U19C U132A,1.89
11,G20A U102C,2.1
12,A22G U120C,0.98
13,U19C A51U,1
14,A22G A90U,2.02
15,U19C A129C,1.72
16,A18U U132C,1.75
17,U19A A78U,0.35
18,U19A A78C,0.29
19,U19C A55G,1.17
20,A22G G74A,0.24
21,G21A A96C,0.6
22,U19G A86U,0.68
23,A22G A60U,0.77
24,G21A U130C,0.53

row,Variant,self-cleavage
1,A22G A78U,0.32
2,A22G A78G,0.27
3,U19C A56G,1.29
4,A22G G29C,2.4
5,G21A U102C,2.29
6,U19C A134G,1.62
7,U19C A91G,1.09
8,A18U U49G,1.01
9,A18U G74A,0.22
10,U19C G75U,0.08
11,G21U U37C,1.85
12,A22G C105U,0.25
13,G21A A36G,1.9
14,A18U U70C,1.04
15,A22G U130C,0.3
16,U19C A78U,0.28
17,A22G A23U,1.26
18,A22G A91C,1.93
19,A22G A91G,0.49
20,A22G A91U,1.06
21,G21C,0.85
22,G21U,1.51
23,G21A,0.62
24,U19C G28A,1.41

row,Variant,self-cleavage
1,U19C A68G,1.24
2,U19C A68U,1.36
3,A22G U70A,1.28
4,U19C U38A,1.46
5,U19A G31A,1.02
6,G21A A66G,1.12
7,U19A A89G,0.78
8,U19C A116G,0.11
9,U19C A116U,0.3
10,U19C U43C,0.54
11,U19C U100C,1.97
12,U19C U100A,0.71
13,A22G A92U,1.94
14,A22G A92G,1.08
15,A22G A116G,0.57
16,A22G A134G,1.02
17,G20A A60U,1.92
18,A22G U26A,0.67
19,A22G U26C,1.02
20,U19C A36G,2.03
21,U19C A36U,1.76
22,A18U G41A,1.09
